Laboratory results published in US20040001842A1.

Key:
[1] = target: CCK-B/gastrin receptor on AR42J cells (rat pancreatic adenocarcinoma) (rat) (UniProt P30553); assay: radioligand inhibition on AR42J cells, GnRH against 125I-hG17
[2] = target: human CCK-B/gastrin receptor (human) (UniProt P32239); assay: 125I-labelled serum injected into nude mice with C170HM2 liver xenografts, CPM/g
[3] = target: affinity purified rabbit Anti-GRE11 antibodies; assay: quantitative immunofluorescence on H69 cells, peptide as inhibitor, relative to GnRH
[4] = target: Affinity purified rabbit anti-GRE1 antibodies; assay: inhibition ELISA, peptide in solution against GRE1-Ser-BSA on the plate
[5] = target: Affinity purified rabbit anti-GRE1 antibodies; assay: inhibition ELISA, mixture of GRE1 EPT and Ser spacer in solution against GRE1-Ser-BSA on the plate
[6] = target: affinity purified rabbit Anti-GRE11 antibodies; assay: quantitative immunofluorescence on H69 cells, 1:1 mixture of GRE1 and GRE6 as inhibitor, relative to GnRH

Chain of UniProt P30553 (P30553 whole entry): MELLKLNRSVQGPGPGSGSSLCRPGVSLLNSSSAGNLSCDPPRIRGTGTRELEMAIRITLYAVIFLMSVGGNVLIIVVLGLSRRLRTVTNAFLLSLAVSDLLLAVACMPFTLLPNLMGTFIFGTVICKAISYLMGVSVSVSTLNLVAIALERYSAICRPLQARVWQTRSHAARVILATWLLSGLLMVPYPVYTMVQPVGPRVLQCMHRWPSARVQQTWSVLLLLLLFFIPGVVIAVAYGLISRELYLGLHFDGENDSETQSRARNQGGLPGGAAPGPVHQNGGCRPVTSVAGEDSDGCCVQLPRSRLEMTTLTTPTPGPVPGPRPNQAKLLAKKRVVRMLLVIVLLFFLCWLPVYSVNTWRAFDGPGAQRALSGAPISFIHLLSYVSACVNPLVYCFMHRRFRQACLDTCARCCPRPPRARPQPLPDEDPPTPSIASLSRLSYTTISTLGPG

## gonadotropin releasing hormone (from UniProt P01148 24-33) (peptide)
[1]
  % inhibition of 125I-hG17 binding: 6%

## normal rabbit serum
[2]
  liver tumor/liver ratio of radiolabel: 1

B1: GRE1 EPT peptide (peptide)
peptide: KLNRSVQGTGPGPGASL
[3]
  percent inhibition of antibody binding: 57%
[4]
  % inhibition: 60%
[5]
  % inhibition: 60%
[6]
  percent inhibition of antibody binding: 49%

B2: GRE11 peptide (peptide)
peptide: MELLKLNRSVQGTGPGPGASLC
[3]
  percent inhibition of antibody binding: 84%

B3: GRE6 peptide (peptide)
peptide: MELLKLNRSVQGC
[3]
  percent inhibition of antibody binding: 4%
